test system: Escherichia coli TOP10; experiment: shrunken log2 fold change of peptide-encoding DNA abundance (4.5 h post-induction vs induction); higher = less antimicrobial activity (less host growth inhibition); conditions: time post-induction: 4.5 h; library: site-saturation at positions 5, 18, 19, 20
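Note: peptides expressed intracellularly from a pBAD plasmid library in pooled LB shake-flask culture, induced with 0.3% L-arabinose, DNA abundance read by NGS, three biological replicates, DESeq2 with apeglm shrinkage.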

| Sequence | shrunken log2 fold change |
| --- | --- |
| RRIRTRPPRLPRPRPRPHEWPRP | 0.00742 |
| RRIRDRPPRLPRPRPRPHVYPRP | -0.0179 |
| RRIRPRPPRLPRPRPRPIMNPRP | -0.799 |
| RRIRGRPPRLPRPRPRPLTSPRP | 0.167 |
| RRIRRRPPRLPRPRPRPMITPRP | -0.172 |
| RRIRLRPPRLPRPRPRPEDCPRP | 0.0408 |
| RRIRVRPPRLPRPRPRPGDVPRP | -0.262 |
| RRIRNRPPRLPRPRPRPTLPPRP | 0.149 |
| RRIRCRPPRLPRPRPRPQVIPRP | -0.386 |
| RRIRIRPPRLPRPRPRPSCMPRP | -0.637 |
| RRIRGRPPRLPRPRPRPYMWPRP | -0.361 |
| RRIRLRPPRLPRPRPRPQPDPRP | -0.161 |
| RRIRKRPPRLPRPRPRPNSWPRP | 0.222 |
| RRIRCRPPRLPRPRPRPQGRPRP | 0.445 |
| RRIRERPPRLPRPRPRPMDVPRP | -0.0821 |
| RRIRQRPPRLPRPRPRPPFSPRP | -0.0357 |
| RRIRYRPPRLPRPRPRPMTIPRP | -0.936 |
| RRIRVRPPRLPRPRPRPRMEPRP | 0.413 |
| RRIRWRPPRLPRPRPRPTPLPRP | 0.557 |
| RRIRKRPPRLPRPRPRPGQWPRP | 0.181 |
| RRIRTRPPRLPRPRPRPVFVPRP | 0.0253 |
| RRIRLRPPRLPRPRPRPHECPRP | 0.0907 |

| Sequence | shrunken log2 fold change |
| --- | --- |
| RRIRPRPPRLPRPRPRPQAPPRP | -0.0721 |
| RRIRVRPPRLPRPRPRPTRLPRP | 0.568 |
| RRIRLRPPRLPRPRPRPTMFPRP | -0.0861 |
| RRIRERPPRLPRPRPRPLLQPRP | -0.0771 |
| RRIRRRPPRLPRPRPRPNMDPRP | -0.442 |
| RRIRVRPPRLPRPRPRPIDHPRP | -0.152 |
| RRIRNRPPRLPRPRPRPRDMPRP | -0.121 |
| RRIRHRPPRLPRPRPRPGDFPRP | -0.147 |
| RRIRMRPPRLPRPRPRPHGNPRP | -0.184 |
| RRIRCRPPRLPRPRPRPTNTPRP | -0.364 |
| RRIRNRPPRLPRPRPRPICMPRP | -0.195 |
| RRIRGRPPRLPRPRPRPRQQPRP | 0.614 |
| RRIRGRPPRLPRPRPRPPANPRP | 1.12 |
| RRIRRRPPRLPRPRPRPGHHPRP | -0.139 |
| RRIRDRPPRLPRPRPRPMWSPRP | -0.0459 |
| RRIRMRPPRLPRPRPRPINGPRP | 0.0854 |
| RRIRVRPPRLPRPRPRPKKHPRP | -0.0486 |
| RRIRLRPPRLPRPRPRPLQGPRP | -0.0384 |
| RRIRIRPPRLPRPRPRPREWPRP | 0.0237 |
| RRIRARPPRLPRPRPRPKCAPRP | 0.363 |
| RRIRGRPPRLPRPRPRPYWNPRP | -0.39 |
| RRIRWRPPRLPRPRPRPEHQPRP | 0.263 |

| Sequence | shrunken log2 fold change |
| --- | --- |
| RRIRHRPPRLPRPRPRPSHLPRP | -0.0467 |
| RRIRCRPPRLPRPRPRPDCPPRP | -0.343 |
| RRIRPRPPRLPRPRPRPPTPPRP | 0.417 |
| RRIRDRPPRLPRPRPRPVTDPRP | 0.0222 |
| RRIRCRPPRLPRPRPRPNDSPRP | -0.221 |
| RRIRMRPPRLPRPRPRPWSKPRP | 0.0409 |
| RRIRKRPPRLPRPRPRPAEIPRP | -0.119 |
| RRIRIRPPRLPRPRPRPSMNPRP | -0.717 |
| RRIRDRPPRLPRPRPRPSTEPRP | 0.301 |
| RRIRFRPPRLPRPRPRPIRTPRP | -0.0861 |
| RRIRYRPPRLPRPRPRPEHWPRP | -0.0026 |
| RRIRQRPPRLPRPRPRPDTNPRP | -0.413 |
| RRIRERPPRLPRPRPRPFKAPRP | 2.45 |
| RRIRARPPRLPRPRPRPGQKPRP | -0.0844 |
| RRIRNRPPRLPRPRPRPINGPRP | -0.262 |
| RRIRFRPPRLPRPRPRPHKAPRP | 0.0324 |
| RRIRLRPPRLPRPRPRPKDGPRP | -0.0687 |
| RRIRRRPPRLPRPRPRPMMFPRP | 0.284 |
| RRIRNRPPRLPRPRPRPCTQPRP | -0.147 |
| RRIRERPPRLPRPRPRPNAGPRP | 0.0608 |
| RRIRCRPPRLPRPRPRPTSIPRP | -0.343 |
| RRIRVRPPRLPRPRPRPLRHPRP | 0.288 |

| Sequence | shrunken log2 fold change |
| --- | --- |
| RRIRQRPPRLPRPRPRPEWIPRP | -0.00133 |
| RRIRARPPRLPRPRPRPGVQPRP | 0.0878 |
| RRIRLRPPRLPRPRPRPMHMPRP | -0.226 |
| RRIRFRPPRLPRPRPRPNGHPRP | -0.0454 |
| RRIRDRPPRLPRPRPRPNLWPRP | -0.0934 |
| RRIRGRPPRLPRPRPRPNHRPRP | 0.00454 |
| RRIRLRPPRLPRPRPRPVGTPRP | 0.00938 |
| RRIRARPPRLPRPRPRPNCYPRP | -0.211 |
| RRIRHRPPRLPRPRPRPIGLPRP | 0.0101 |
| RRIRWRPPRLPRPRPRPLPFPRP | -0.387 |
| RRIRKRPPRLPRPRPRPSSVPRP | -0.378 |
| RRIRVRPPRLPRPRPRPIRMPRP | -0.243 |
| RRIRTRPPRLPRPRPRPVFWPRP | 0.386 |
| RRIRVRPPRLPRPRPRPFSCPRP | -0.323 |
| RRIRCRPPRLPRPRPRPLLAPRP | 0.229 |
| RRIRARPPRLPRPRPRPKYDPRP | -0.293 |
| RRIRDRPPRLPRPRPRPHKPPRP | -0.000627 |
| RRIRNRPPRLPRPRPRPPISPRP | 0.129 |
| RRIRFRPPRLPRPRPRPAYTPRP | -0.876 |
| RRIRNRPPRLPRPRPRPRDIPRP | -0.138 |
| RRIRLRPPRLPRPRPRPHTGPRP | -0.158 |
| RRIRPRPPRLPRPRPRPVPDPRP | 0.00557 |

| Sequence | shrunken log2 fold change |
| --- | --- |
| RRIRVRPPRLPRPRPRPCMFPRP | -0.559 |
| RRIRQRPPRLPRPRPRPANNPRP | -0.27 |
| RRIRNRPPRLPRPRPRPDCCPRP | 0.00539 |
| RRIRFRPPRLPRPRPRPPWDPRP | 0.195 |
| RRIRPRPPRLPRPRPRPDWKPRP | 0.286 |
| RRIRKRPPRLPRPRPRPGRWPRP | 0.622 |
| RRIRMRPPRLPRPRPRPMPCPRP | -0.00548 |
| RRIRSRPPRLPRPRPRPTPYPRP | -0.26 |
| RRIRGRPPRLPRPRPRPHKIPRP | 0.11 |
| RRIRTRPPRLPRPRPRPNMAPRP | -0.155 |
| RRIRRRPPRLPRPRPRPLQYPRP | 0.615 |
| RRIRGRPPRLPRPRPRPIPEPRP | 0.462 |
| RRIRSRPPRLPRPRPRPSDEPRP | -0.673 |
| RRIRNRPPRLPRPRPRPSVLPRP | 0.0978 |
| RRIRARPPRLPRPRPRPWVLPRP | -0.0908 |
| RRIRARPPRLPRPRPRPGLTPRP | 0.686 |
| RRIRWRPPRLPRPRPRPHRYPRP | -0.15 |
| RRIRQRPPRLPRPRPRPFFPPRP | -0.0441 |
| RRIRRRPPRLPRPRPRPWGEPRP | 2.96 |
| RRIRGRPPRLPRPRPRPMPFPRP | 0.118 |
| RRIRARPPRLPRPRPRPEFDPRP | 1.44 |

Reference: the supplement of paper PMC9112550, “Optimization of the antimicrobial peptide Bac7 by deep mutational scanning” (BMC Biology, 2022)
